± gives the uncertainty stated by the source.
Experiment: self-splicing fitness, log relative to wild type (ln ratio); higher = more splicing; Tetrahymena group I intron in knt gene, E. coli kanamycin selection, DiMSum; sequences stand for … in CUCUCU…GGAGGGAAAAGUUAUCAGGCAUGCACCUGGUAGCUAGUCUUUAAACCAAUAGAUUGCAUCGGUUUAAAAGGCAAGACCGUCAAAUUGCGGGAAAGGGGUCAACAGCCGUUCAGUACCAAGUCUCAGGGGAAACUUUGAGAUGGCCUUGCAAAGGGUAUGGUAAUAAGCUGACGGACAUGGUCCUAACCACGCAGCCAAGUCCUAAGUCAACAGAUCUUCUGUUGAUAUGGAUGCAGUUCACAGACUAAAUGUCGGUCGGGGAAGAUGUAUUCUUCUCAUAAGAUAUAGUCGGACCUCUCCUUAAUGGGAGCUAGCGGAUGAAGUGAUGCAACACUGGAGCCGCUGGGAACUAAUUUGUAUGCGAAAGUAUAUUGAUUAGUUUUGGAGUACUCGUGGUCG
Method in brief: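 DiMSum derived fitness as the error-weighted combination of fold changes across replicates, kanamycin versus no kanamycin, normalised to wild type. E. coli BL21(DE3) held the library, which randomised all eight P1ex-region intron nucleotides within the knt kanamycin-resistance gene on pET-22b(+). Six replicate transformations grew overnight at 37°C or 30°C on LB agar with or without 25 μg/mL kanamycin, also containing 100 μg/mL carbenicillin, 50 μM IPTG and 0.2% rhamnose, and pooled colonies were amplicon-sequenced on an Illumina HiSeq 2500.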

Sequence	self-splicing fitness (ln) (30 °C)	self-splicing fitness (ln) (37 °C)
CUUGAGCAAUAUUACGCCGC	-1.08 ± 0.47	–
CUUGAGCAAUAUUACGCCUU	–	-2.47 ± 0.37
CUUGAGCAAUAUUACGCGAA	-3.53 ± 0.4	–
CUUGAGCAAUAUUACGCGAG	-3.64 ± 0.16	-2.82 ± 0.23
CUUGAGCAAUAUUACGGGAC	-3.63 ± 0.29	-2.56 ± 0.3
CUUGAGCAAUAUUACGGGUC	-3.49 ± 0.19	-2.97 ± 0.25
CUUGAGCAAUAUUACGGUUU	-2.68 ± 0.16	-2.66 ± 0.29
CUUGAGCAAUAUUACGUGCC	-2.26 ± 0.17	-2.75 ± 0.38
CUUGAGCAAUAUUACGUGGU	-2.61 ± 0.15	-2.74 ± 0.19
CUUGAGCAAUAUUACGUUGG	-2.66 ± 0.28	-0.601 ± 0.18
CUUGAGCAAUAUUACGUUUC	-3.44 ± 0.27	-2.68 ± 0.36
CUUUAGCAAUAUUACGACUU	–	-3.6 ± 0.46
CUUUAGCAAUAUUACGAGUU	–	-2.96 ± 0.4
CUUUAGCAAUAUUACGAUAU	-3.93 ± 0.35	-3.25 ± 0.38
CUUUAGCAAUAUUACGAUUC	-3.16 ± 0.2	-2.6 ± 0.33
CUUUAGCAAUAUUACGCAGC	–	-2.27 ± 0.33
CUUUAGCAAUAUUACGCAUA	-3.68 ± 0.37	–
CUUUAGCAAUAUUACGCCAA	-2.63 ± 0.37	–
CUUUAGCAAUAUUACGCCUC	–	-1.99 ± 0.43
CUUUAGCAAUAUUACGCUUC	–	-2.32 ± 0.38
CUUUAGCAAUAUUACGGAAA	–	-2.01 ± 0.27
CUUUAGCAAUAUUACGGACG	-0.38 ± 0.07	-0.273 ± 0.11
CUUUAGCAAUAUUACGGACU	-4.41 ± 0.31	-3.71 ± 0.28
CUUUAGCAAUAUUACGGAGG	-1.75 ± 0.15	-1.29 ± 0.19
CUUUAGCAAUAUUACGGUGG	-1.96 ± 0.1	-0.665 ± 0.11

Sequence	self-splicing fitness (ln) (30 °C)	self-splicing fitness (ln) (37 °C)
CUUUAGCAAUAUUACGUCAG	-1.03 ± 0.12	-0.4 ± 0.13
CUUUAGCAAUAUUACGUGGA	-3.4 ± 0.4	-3.58 ± 0.31
CUUUAGCAAUAUUACGUUCG	-1.09 ± 0.13	0.499 ± 0.17
CUUUAGCAAUAUUACGUUGC	-3.08 ± 0.28	-3.55 ± 0.39
GAAAAGCAAUAUUACGAAAU	-1.74 ± 0.14	-1.09 ± 0.16
GAAAAGCAAUAUUACGACCC	0.23 ± 0.13	-0.182 ± 0.18
GAAAAGCAAUAUUACGAUAU	-1.15 ± 0.071	-0.354 ± 0.093
GAAAAGCAAUAUUACGAUUA	-0.531 ± 0.07	-0.0202 ± 0.076
GAAAAGCAAUAUUACGAUUG	-2.27 ± 0.13	-1.52 ± 0.14
GAAAAGCAAUAUUACGCGUA	-1.27 ± 0.11	-1.15 ± 0.11
GAAAAGCAAUAUUACGCGUG	-1.42 ± 0.065	-0.104 ± 0.078
GAAAAGCAAUAUUACGCUUG	-1.72 ± 0.13	-0.918 ± 0.14
GAAAAGCAAUAUUACGGCCA	-1.03 ± 0.16	0.81 ± 0.21
GAAAAGCAAUAUUACGGCCU	-0.569 ± 0.12	0.296 ± 0.14
GAAAAGCAAUAUUACGGUAG	-3.24 ± 0.18	-1.53 ± 0.13
GAAAAGCAAUAUUACGGUGA	-1.48 ± 0.07	-1.07 ± 0.075
GAAAAGCAAUAUUACGUAAA	-2.4 ± 0.13	-0.992 ± 0.14
GAAAAGCAAUAUUACGUAGG	-3.87 ± 0.14	-1.96 ± 0.11
GAAAAGCAAUAUUACGUGAG	-1.53 ± 0.068	-1.47 ± 0.11
GAACAGCAAUAUUACGAAUU	-1.15 ± 0.088	-0.293 ± 0.1
GAACAGCAAUAUUACGAGCC	-1.57 ± 0.14	-1.09 ± 0.22
GAACAGCAAUAUUACGAGGC	-3.07 ± 0.18	-2.03 ± 0.14
GAACAGCAAUAUUACGAGUU	-2.29 ± 0.092	-0.935 ± 0.1
GAACAGCAAUAUUACGAUAA	-0.728 ± 0.076	-0.326 ± 0.092
GAACAGCAAUAUUACGAUAC	-0.825 ± 0.065	-0.127 ± 0.087

Sequence	self-splicing fitness (ln) (30 °C)	self-splicing fitness (ln) (37 °C)
GAACAGCAAUAUUACGAUGC	-0.47 ± 0.079	0.126 ± 0.12
GAACAGCAAUAUUACGCAAA	-1.37 ± 0.12	-0.529 ± 0.11
GAACAGCAAUAUUACGCGUG	-0.931 ± 0.053	-0.34 ± 0.059
GAACAGCAAUAUUACGCUAA	-1.13 ± 0.062	-0.958 ± 0.075
GAACAGCAAUAUUACGCUCA	-1.23 ± 0.073	0.207 ± 0.1
GAACAGCAAUAUUACGCUCC	-3.43 ± 0.36	-2.34 ± 0.43
GAACAGCAAUAUUACGCUUG	-0.92 ± 0.072	-0.731 ± 0.087
GAACAGCAAUAUUACGGAUG	-2.79 ± 0.16	-2.29 ± 0.14
GAACAGCAAUAUUACGGCCA	-0.58 ± 0.18	-0.441 ± 0.22
GAACAGCAAUAUUACGGCUC	-0.329 ± 0.1	-0.256 ± 0.1
GAACAGCAAUAUUACGGGCC	-2.22 ± 0.14	-1.09 ± 0.17
GAACAGCAAUAUUACGUAGA	-0.427 ± 0.049	-0.162 ± 0.069
GAACAGCAAUAUUACGUAUC	-2.83 ± 0.1	-1.39 ± 0.12
GAACAGCAAUAUUACGUCAA	-1.14 ± 0.057	-0.166 ± 0.06
GAACAGCAAUAUUACGUGCC	-2.58 ± 0.14	-0.859 ± 0.12
GAACAGCAAUAUUACGUGGC	-3.03 ± 0.17	-2.6 ± 0.18
GAACAGCAAUAUUACGUGGU	-3.12 ± 0.11	-1.89 ± 0.09
GAACAGCAAUAUUACGUGUA	-1.58 ± 0.062	-0.438 ± 0.069
GAACAGCAAUAUUACGUUGA	-1.47 ± 0.066	-1.02 ± 0.077
GAAGAGCAAUAUUACGAAGG	-2.75 ± 0.17	-3.62 ± 0.46
GAAGAGCAAUAUUACGAUGU	-2.54 ± 0.2	-1.39 ± 0.15
GAAGAGCAAUAUUACGAUUG	-2.53 ± 0.29	-2.4 ± 0.39
GAAGAGCAAUAUUACGCCCC	-1.93 ± 0.17	-0.902 ± 0.18
GAAGAGCAAUAUUACGCGGG	-3.24 ± 0.28	-2.65 ± 0.41
GAAGAGCAAUAUUACGCGUU	-3.69 ± 0.33	-3.12 ± 0.28

Sequence	self-splicing fitness (ln) (30 °C)	self-splicing fitness (ln) (37 °C)
GAAGAGCAAUAUUACGCUAU	-2.39 ± 0.24	-2.79 ± 0.48
GAAGAGCAAUAUUACGCUCC	-2.52 ± 0.24	–
GAAGAGCAAUAUUACGCUUA	-3.49 ± 0.33	-1.3 ± 0.23
GAAGAGCAAUAUUACGGAGU	-3.07 ± 0.46	-2.47 ± 0.45
GAAGAGCAAUAUUACGGGCG	-3.54 ± 0.37	-2.84 ± 0.35
GAAGAGCAAUAUUACGGUGC	–	-2.41 ± 0.21
GAAGAGCAAUAUUACGGUUC	-3.53 ± 0.29	-1.46 ± 0.22
GAAGAGCAAUAUUACGUCAG	-3.58 ± 0.2	-3.03 ± 0.35
GAAGAGCAAUAUUACGUGCA	-2.38 ± 0.18	-1.24 ± 0.2
GAAGAGCAAUAUUACGUGUC	-4.75 ± 0.46	-2.79 ± 0.27
GAAGAGCAAUAUUACGUGUU	-4.18 ± 0.23	-2.12 ± 0.18
GAAGAGCAAUAUUACGUUAC	-2.82 ± 0.17	-2.7 ± 0.2
GAAUAGCAAUAUUACGAAAA	-1.52 ± 0.22	-1.02 ± 0.2
GAAUAGCAAUAUUACGAAAG	-3.86 ± 0.41	-2.55 ± 0.27
GAAUAGCAAUAUUACGAAUA	-1.07 ± 0.17	-1.57 ± 0.22
GAAUAGCAAUAUUACGACGA	-0.436 ± 0.36	0.000314 ± 0.24
GAAUAGCAAUAUUACGAGCA	-1.94 ± 0.23	-0.431 ± 0.14
GAAUAGCAAUAUUACGAGUG	-2.01 ± 0.076	-2.34 ± 0.13
GAAUAGCAAUAUUACGCACU	-0.269 ± 0.089	0.18 ± 0.11
GAAUAGCAAUAUUACGCAUA	-2.62 ± 0.29	-1.08 ± 0.17
GAAUAGCAAUAUUACGCCCC	-0.0149 ± 0.39	-0.245 ± 0.42
GAAUAGCAAUAUUACGCCGC	–	-1.45 ± 0.43
GAAUAGCAAUAUUACGCGAC	-1.89 ± 0.2	0.34 ± 0.18
GAAUAGCAAUAUUACGCGCC	-1.29 ± 0.24	-1.32 ± 0.29

From the supplement of paper PMC7877785
